In patent US20240166750A1 (published 2024) one finds Kd data, which are given here for 3 molecules.

This experiment addresses Recombinant human FcγRIIIa-V158 (human, UniProt P08637 17-208). Briefly: SPR; -kif. A general note: SPR reads the build-up and loss of mass on a sensor chip optically.

Substitutions are numbered along the chain they refer to. In names and notes the source's numbering stands.

Chain of Recombinant human FcγRIIIa-V158 (P08637 17-208 F176V): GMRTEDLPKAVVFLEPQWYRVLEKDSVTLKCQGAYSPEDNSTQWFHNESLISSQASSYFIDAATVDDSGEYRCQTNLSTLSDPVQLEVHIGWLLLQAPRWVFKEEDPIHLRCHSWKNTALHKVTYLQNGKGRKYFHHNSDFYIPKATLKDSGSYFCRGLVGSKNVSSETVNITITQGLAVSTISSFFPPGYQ

B1: human IgG1 antibody specific for protein 4, S239D/I332E + T256D/T307Q, -Kif (antibody)
chain: ASTKGPSVFPLAPSSKSTSGGTAALGCLVKDYFPEPVTVSWNSGALTSGVHTFPAVLQSSGLYSLSSVVTVPSSSLGTQTYICNVNHKPSNTKVDKKVEPKSCDKTHTCPPCPAPELLGGPDVFLFPPKPKDTLMISRDPEVTCVVVDVSHEDPEVKFNWYVDGVEVHNAKTKPREEQYNSTYRVVSVLQVLHQDWLNGKEYKCKVSNKALPAPEEKTISKAKGQPREPQVYTLPPSRDELTKNQVSLTCLVKGFYPSDIAVEWESNGQPENNYKTTPPVLDSDGSFFLYSKLTVDKSRWQQGNVFSCSVMHEALHNHYTQKSLSLSPGK
As for B1, the equilibrium dissociation constant (Kd) – broadly, the free concentration of one partner at which half of the binding sites on the other are occupied at equilibrium, for simple one-to-one binding – was 12.3 nM.

B2: human IgG1 antibody specific for protein 4, T256D/T307Q + R292C/V302C, -Kif (antibody)
chain: B1 chain with D122S, R175C, V185C, E215I
On to B2, for which the dissociation constant (Kd) is 410 nM.

B3: human IgG1 antibody specific for protein 4, S239D + T256D/T307Q + R292C/V302C, -Kif (antibody)
chain: B1 chain with R175C, V185C, E215I
As for B3, the Kd came to 87.5 nM.
